Paper PMC11787825
Changes are numbered by the printed parent chain. Like-named read-outs stand apart in the source and are kept apart here.

Legend:
Assay in all cases: cryo-EM structure
[1] = biological target: T1, HSV-1 Pol (PolΔN42);UL42 (UL42ΔC340) (Herpes simplex virus 1 (strain …, UniProt H9E937;H9E949 43-1235;2-340, |))
[2] = biological target: T1, HSV-1 Pol (PolΔN42);UL42 (UL42ΔC340); remark: listed apart in the source
[3] = biological target: T1, HSV-1 Pol (PolΔN42);UL42 (UL42ΔC340); remark: listed apart in the source

B1: PT1 (dsDNA)
DNA 1: GATTACGAATTCGAGCTCGGTACCCGGGGATC
DNA 2: CACACACACACACACACAGATCCCCGGGTACCGAGCTCGAATTCGTAATC
modifications: primer 3'-terminal dideoxycytidine (ddC)
- binding result [1]: binds

B2: PT2 (dsDNA)
DNA 1: B1 DNA 1
DNA 2: B1 DNA 2 with A18C
modifications: primer 3'-terminal dideoxycytidine (ddC)
- binding result [2]: binds

B3: PT3 (dsDNA)
DNA 1: GATTACGAATTCGAGCTCGGTACCCGGGGATCG
DNA 2: B1 DNA 2
modifications: phosphorothioate bonds at primer ends (after nt 1 and before the 3'-terminal G)
- binding result [3]: binds
